System: T1, MG3-6/3-4 chimera (MG3-6 1-742 + MG3-4 743-1134) (synthetic construct)
T1 sequence: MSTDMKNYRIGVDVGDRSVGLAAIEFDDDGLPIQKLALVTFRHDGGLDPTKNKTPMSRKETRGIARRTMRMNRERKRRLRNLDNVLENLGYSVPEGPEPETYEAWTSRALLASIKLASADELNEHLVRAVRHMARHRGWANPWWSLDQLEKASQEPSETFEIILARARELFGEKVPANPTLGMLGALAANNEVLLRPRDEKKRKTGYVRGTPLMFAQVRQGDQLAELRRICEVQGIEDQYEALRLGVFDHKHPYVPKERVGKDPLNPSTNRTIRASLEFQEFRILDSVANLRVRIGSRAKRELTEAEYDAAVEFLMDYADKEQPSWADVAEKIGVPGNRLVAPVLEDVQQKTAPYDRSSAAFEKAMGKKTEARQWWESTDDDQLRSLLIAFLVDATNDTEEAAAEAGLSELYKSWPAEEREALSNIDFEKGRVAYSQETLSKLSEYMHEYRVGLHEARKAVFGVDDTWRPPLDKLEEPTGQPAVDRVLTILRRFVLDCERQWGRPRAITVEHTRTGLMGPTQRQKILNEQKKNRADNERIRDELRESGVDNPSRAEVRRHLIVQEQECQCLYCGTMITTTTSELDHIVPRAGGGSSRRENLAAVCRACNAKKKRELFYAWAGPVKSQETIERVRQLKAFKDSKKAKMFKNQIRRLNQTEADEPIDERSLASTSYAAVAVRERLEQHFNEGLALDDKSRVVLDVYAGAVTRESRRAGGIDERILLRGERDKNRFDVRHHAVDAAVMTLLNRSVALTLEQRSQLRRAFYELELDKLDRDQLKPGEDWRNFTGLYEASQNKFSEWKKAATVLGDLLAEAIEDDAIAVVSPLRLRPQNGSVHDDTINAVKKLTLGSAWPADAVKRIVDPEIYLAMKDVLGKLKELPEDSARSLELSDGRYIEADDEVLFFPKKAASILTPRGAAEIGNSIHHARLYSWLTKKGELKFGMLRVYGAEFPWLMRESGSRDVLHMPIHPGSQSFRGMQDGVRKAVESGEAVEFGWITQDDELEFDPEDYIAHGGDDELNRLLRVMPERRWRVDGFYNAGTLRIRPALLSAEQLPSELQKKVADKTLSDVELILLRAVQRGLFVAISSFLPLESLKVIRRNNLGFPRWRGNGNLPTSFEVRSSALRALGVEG
Assay: cell_activity
Details: 2'-OMe and PS at termini; Hep3B; 25.0 % in PHH; PAM NNAAA(A/T)N

“CCAUCUAUCAGCUGGGAAGAUAGUUGAGAAUCGAAAGAUUCUUAAUAAGGCAUCCUUCCGAUGCUGACUUCUCACCGUCCGUUUUCCAAUAGGAGCGGGCGGUAUGUUUU / CCATCTATCAGCTGGGAAGATATCAAATG / CATTTGATATCTTCCCAGCTGATAGATGG [hH364-32 sgRNA ; human HAO1 hH364-32 target]” gave an activity of 60 % indel.

Source: US20250002886
